In the assay the target is Trypsin-activated Cry1F toxin from Bacillus thuringiensis (Bacillus thuringiensis, UniProt Q03746 1-1174). As to the kind of experiment: SPR; Biacore 8K; activated Cry1F immobilised on a CM5 chip (10 mM sodium acetate pH 4.0); analytes without His tag in 10 mM HEPES, 150 mM NaCl, 3 mM EDTA, 0.005% Tween-20, pH 7.4; 30 uL/min, association 120 s, dissociation 280 s; 1:1 binding model. To be noted: both partners purified. In general terms: Surface plasmon resonance follows binding to a sensor surface in real time, without labels.

Results on four molecules are retold here after PMC9714555, “Hemocyte response to treatment of susceptible and resistant Asian corn borer (Ostrinia furnacalis) larvae with Cry1F toxin from Bacillus thuringiensis” (Frontiers in Immunology, 2022).

The term Kd denotes the free concentration of one partner at which half of the binding sites on the other are occupied at equilibrium, for simple one-to-one binding. A low value points to tighter binding. One may read the koff as a measure of how fast the partners let go of each other. A low value points to a long-lived complex. The term kon denotes the second-order rate constant of association.

Chain of Trypsin-activated Cry1F toxin from Bacillus thuringiensis (Q03746 28-612 limits assumed): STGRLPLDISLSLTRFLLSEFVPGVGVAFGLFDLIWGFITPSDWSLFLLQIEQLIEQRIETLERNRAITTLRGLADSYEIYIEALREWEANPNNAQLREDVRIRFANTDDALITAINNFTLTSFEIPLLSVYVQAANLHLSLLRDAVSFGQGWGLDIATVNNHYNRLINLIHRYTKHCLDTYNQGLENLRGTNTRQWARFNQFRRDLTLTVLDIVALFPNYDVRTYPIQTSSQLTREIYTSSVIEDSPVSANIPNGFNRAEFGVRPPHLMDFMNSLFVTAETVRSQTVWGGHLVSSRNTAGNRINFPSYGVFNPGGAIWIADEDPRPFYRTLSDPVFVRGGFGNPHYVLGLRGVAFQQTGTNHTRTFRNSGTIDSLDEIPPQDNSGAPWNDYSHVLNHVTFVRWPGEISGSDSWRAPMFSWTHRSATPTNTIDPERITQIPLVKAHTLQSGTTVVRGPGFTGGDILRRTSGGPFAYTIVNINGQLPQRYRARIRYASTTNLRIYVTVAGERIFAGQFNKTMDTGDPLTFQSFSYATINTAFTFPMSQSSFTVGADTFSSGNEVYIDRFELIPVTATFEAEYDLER

B1: C-type mannose receptor 2-like (C-MR2), His tag removed (natural protein)
chain: SELNTSKSNWFRPDYSYSERTGGWFKFHSVPATWEDARLQCYYEGAELVSPFNENIIQKMIMLMDVNEPYIFTGIHSTFSKGVYTSVGGVPLHEMPVSLHSRDVSGNCVTMRSNGRVEARNCSSQYPYICFKKGPEHLTSSVCGADQEYKYEQRTGSCYKFHTLGRTWPQAFRVCVAEGGHLAIINSDVEADVIRGIFQNYPDDAFKADAKYAASIGFQGWGAVKIWWTIHGQTLQDAGYSKWDKFVPDMRSTRHYCGAVGRNGTLSHIECEGVTFPAICEKKADLV
modifications: Wild-type trypsin-activated core; the text prints neither the Cry1F subtype nor the limits. Cry1Fa assumed, with the conventional tryptic core 28-612.
Turning to B1, the Kd is 22.1 nM, the koff amounted to 0.0041 s⁻¹ and the kon was 185000 M⁻¹ s⁻¹.

B2: C-type lectin lectoxin-Phi1-like (C-lectoxin), His tag removed (natural protein)
chain: DVPKDYIVNPNDSHGYKLMYHAKTWTEARDDCANVGAKLAVPKTRDQFEFIQKIVRSMQYQSIVGTEYKLLVWLGISNLKNYQVWANVDGENIEDTEFHTWAGQNGLKSENPAEPHCVGMDSMNFGLRDWWCHQRQPYICEILTVQNATQ
modifications: Wild-type trypsin-activated core; the text prints neither the Cry1F subtype nor the limits. Cry1Fa assumed, with the conventional tryptic core 28-612.
As to B2, binding was characterised by a dissociation constant (Kd) of 46.6 nM, the koff stood at 0.00513 s⁻¹ and the kon turned out to be 110000 M⁻¹ s⁻¹.

B3: CD63 antigen-like (CD63) tetraspanin, His tag removed (natural protein)
chain: KGNAEALVQKQLYETMQLYTHDVVVTRLWDEVQEDFSCCGVNNASDWLAPLGTANTDQGLPLSCCQFPFGTITVFNCTMATPAPTLRTEGCSTAFGAWVQSHAGS
modifications: Wild-type trypsin-activated core; the text prints neither the Cry1F subtype nor the limits. Cry1Fa assumed, with the conventional tryptic core 28-612.
B3: binding was put at a Kd of 294 nM, the koff is 0.00474 s⁻¹ and the kon amounted to 16100 M⁻¹ s⁻¹.

B4: hemolymph lipopolysaccharide-binding protein (LBP), His tag removed (natural protein)
chain: QKRYRNDYVYDANTDAFYKFHVNMAVHWRALTICKLEGATLMVPTSVQQIAQVHGMFKQYPDIGHYVWIGDDNADHESAEETPIIDLQPEVETEAPWERRCLVLTRRGEIQTQNCRYYQSFVCMVEAKNAPYDHRCDVYAAGYEYNTDVKSCYKIPRDIKTWNAAYAECQAHGAHLVVVNSVTERDVLQALMSRTPYLRTSFSPYHYIAGIRATSVIGSEVVYRTIFNETLEEAGFSEWADNEPNNQQGIEYCGSLHQRSGKYNDISCLSSFGYICEKERNE
modifications: Wild-type trypsin-activated core; the text prints neither the Cry1F subtype nor the limits. Cry1Fa assumed, with the conventional tryptic core 28-612.
With B4, the Kd is 119 nM, the koff was determined as 0.00294 s⁻¹ and the kon was 24700 M⁻¹ s⁻¹.
